{
  "source": "the supplement of paper PMC12636428",
  "data": [
    {"tested_on": "Saccharomyces cerevisiae", "assay": "transcriptional activation domain activity (GFP:mCherry ratio, weighted mean of sorted bins, harmonized to initial dataset scale) (arbitrary fluorescence ratio units); higher = stronger transcriptional activation", "conditions": "beta-estradiol 1 µM; induction time 4 h", "method_in_brief": "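Yeast diploids with a GFP reporter received barcoded protein tiles, fused to an estradiol-inducible synthetic transcription factor, at the URA3 locus. Cultures were diluted 1:5 into SC holding 1 uM beta-estradiol, incubated 4 hours at 30 °C, sorted into 8 bins on GFP:mCherry ratio, and sequenced for barcodes, with tiles under 50 reads discarded. Activation activity values come from the read-weighted mean of bin median fluorescence, averaged across barcodes and linearly placed on the initial dataset scale.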", "values": [
      {"sequence": "DGEATATPAKPKTPRKRKVKAADSAEEGTGDAEGSPKKKAGGRKKKADVAVKE", "transcriptional activation domain activity": 38600},
      {"sequence": "MTVSLQLYSHTLQLVLCCACAPPLLKFLLFCFFFFFWFFFFFWFCFWFFLLMF", "transcriptional activation domain activity": 38000},
      {"sequence": "TRVMAEENGMTVDEKAFEEAQEAAKEASRKARGGKGGEEAVALDVHDLAALEK", "transcriptional activation domain activity": 36200},
      {"sequence": "KAFRLVHGILQRSHPRTLDRLFSSMLWLLHNGLTEVALLLRDYIRSLSIRLTS", "transcriptional activation domain activity": 53000},
      {"sequence": "AEAQEGRKKDAAAAAEKKEEESPKKEEESAAGEEKQAAPKKKPKKLERRGGAA", "transcriptional activation domain activity": 41300},
      {"sequence": "EWTRLVQNPAASPRLLNGFIRQMLADLPTTSILVLVRTALEVSVESYAQAGST", "transcriptional activation domain activity": 58700},
      {"sequence": "PEEKKEKAAEGEATKKEGEVGKKKGKKGDKKKEASGEQAPAAAAPAEEKKAEQ", "transcriptional activation domain activity": "< 6570"},
      {"sequence": "AYHSAKHVIVPNDGKLLAMTDPLISDLDEDGQKGLLIISRGTALLLLGVYIAY", "transcriptional activation domain activity": 47300},
      {"sequence": "MFLCLQFRYLFCCGLKHWLRWGDALCLRVLMQGRCCWCGKRKFMLSVSILSWR", "transcriptional activation domain activity": 53600},
      {"sequence": "DSHYILQGVDAAIQILKLCRVCLHPRAVLSYLPHSFYLYLCYAAVFLLKVVFV", "transcriptional activation domain activity": 61700},
      {"sequence": "MLNLSYPFVLFILVPLILIPTCFCPFFVGPSYMSFCLSWLLPLFSFLPLLMLM", "transcriptional activation domain activity": 50300},
      {"sequence": "SSGGDSGGDDTTTTTKKSRPRHHHLAHHHLHHLHHLHYLHHFHHHTHQHDDHL", "transcriptional activation domain activity": 22900},
      {"sequence": "CVFDMPCLWYGVYLVWFGVFSYLLLWCFALGAYYSSTVWSILWLIAAGSWCRQ", "transcriptional activation domain activity": 73300},
      {"sequence": "ILALSWGGGLYPWASYHVLVPLILGFCILVVFALYEIYMPLKYPLIPMSLFLN", "transcriptional activation domain activity": 40400},
      {"sequence": "MWGRWVGWSLIFLELYLDHLILQFIPPTRFIVTLFFFFSFLFIWYFCLLSLSL", "transcriptional activation domain activity": 28800},
      {"sequence": "TPFALFSSCYALNATVDQDYPLLFRRCVLGDTLWVLAILLCILWSLLVCFAFW", "transcriptional activation domain activity": 31300},
      {"sequence": "LSSYLLKNALDVFCKYLPHVSKPVETVFKVKRKYSWMVLFLLYCILTHTNYHC", "transcriptional activation domain activity": 26800},
      {"sequence": "EAKEGEDGEKEKPKRGRKRKEPAADAEDEAADGDAADGEEPPAKKAKPASKAA", "transcriptional activation domain activity": 61800},
      {"sequence": "FVEKGRERERGKGRRGGGGGAGEEQREGGGGGRGGGRGKTVVVVVRDVASSGD", "transcriptional activation domain activity": 25100},
      {"sequence": "CFFLFYIIHLPLLFIHITKSMYVLIVSRFVSSFPVSVGWAVGRAHGFGPLFAQ", "transcriptional activation domain activity": 51900},
      {"sequence": "ADSRRKTRRVRKRKSSRRHQEEGEEEESESEEEEADARKRRKKEKGGGKDKKK", "transcriptional activation domain activity": 23600},
      {"sequence": "LPTGSLLPGVGPLRSLIFDLELTRHIVDAYDLYDILFHPRTLPLLCHLTYLHI", "transcriptional activation domain activity": 41800},
      {"sequence": "GEKATEAANGEGSGTEGSRRRASGRGRGRGRGRNGRGGARGGRAGDAEEKKEG", "transcriptional activation domain activity": 9280},
      {"sequence": "MFLCCVCIEAQARILYLCCLYKLLTFYSFYYFYHSYFLLILNFFLLTILHALC", "transcriptional activation domain activity": 74000},
      {"sequence": "MAIDCLALHIPTCVNLWGHVLYVQLVTVMYPSHFFFSFYFIFIFILFLFFLFF", "transcriptional activation domain activity": 14300},
      {"sequence": "VFFVWICCCYGTHILSVFVDPSGMYIVPLNILGSLLHGSTLPCIVASWLIIHL", "transcriptional activation domain activity": 45600},
      {"sequence": "MLLALRMFEELKLFFLSFVFLSQFFFFIYLFLVHYCKWRMVTLPYSVFTFFLV", "transcriptional activation domain activity": 44000},
      {"sequence": "RCQAVTVSDEVYSKLRCSSGHSGSGLLFMLIWIRIWKTLVIAYSGFSWREYLY", "transcriptional activation domain activity": 88100},
      {"sequence": "LYVIIFPILYFSLLLFYFFSSCGGVGWWAVGWHGVLCFFVLLGWVGLGGCCLC", "transcriptional activation domain activity": 35900},
      {"sequence": "PAEVKLIWTRPVTLTKVIFVFVRYSIALCQVTAVYVLLIVRVYTLWDHRRAIL", "transcriptional activation domain activity": 70300},
      {"sequence": "IEDSRRVDRGDEDKGREDHTRHRRRGSTDTGRRDERSHRDRRRSRSRSPASRR", "transcriptional activation domain activity": 21900},
      {"sequence": "ALIHLPRPQNELVLTLIIRWLVRTTSPLGVIRAAQTHIGAIGYPDVWPTVLFF", "transcriptional activation domain activity": 68900},
      {"sequence": "FLRLFCFAFIMLVGILPTQAYVVYADVKLSMPWHAYSWSNMHGPSWHTVNMVP", "transcriptional activation domain activity": 51400},
      {"sequence": "VMHALWNRWIFFNRSLFLGNQHEGVRAFITEYWRMIRLAAGWDVLRWWLLILC", "transcriptional activation domain activity": 51800},
      {"sequence": "GLMGALGFRMLFGVPCLPFFALHWFLWLVNDYILYCVLVQTNRISSIHFLRAW", "transcriptional activation domain activity": 41200},
      {"sequence": "MASGILGLLVVNFVLLLICFIAYSSQIFVIWPWYGRTVSVELISLLLPFNILV", "transcriptional activation domain activity": 42800},
      {"sequence": "AEEEQKKPKGKKAAAASKPKKSSDDEPAPGKSKPAARTGSIKGKSTGTKAGAQ", "transcriptional activation domain activity": 22300},
      {"sequence": "KWHSTMQSAAARGTRVLHDKRRSRVKREGGEGGGGKEERRRQRRRTCATCTRL", "transcriptional activation domain activity": 29700},
      {"sequence": "MNQTSCFFPPFFLFSFFFFLFFFPFPHSSSLPSFFFSFPSISPLFTSFSVSSL", "transcriptional activation domain activity": 35200},
      {"sequence": "IRFTLPTLVFAAVQLARRFKLLEAGGWSEWARKMCSLYKFVHQIIGLLYTRVE", "transcriptional activation domain activity": 62600},
      {"sequence": "EIKEATGEEHQEEQEDAIDSKEKVVMQSCPEVSLRRIRRLLRKHKGDPNKVID", "transcriptional activation domain activity": 27300},
      {"sequence": "IDGIDLEEAGNFREIETYYRDYLSPIDRLSIISVQENNVIFQDKGNVSRENIE", "transcriptional activation domain activity": 73100},
      {"sequence": "DGWGDGGLRAGALEEVQRRAEEMRGRLRLDEEARLYFSRSGNRLVRVVIILVG", "transcriptional activation domain activity": 7180},
      {"sequence": "SDDETSRSHKKSSRRDTSQDDAERGRHHHKSSRHKGERDRHHKIRSRSRSPAR", "transcriptional activation domain activity": 13900},
      {"sequence": "MGFKTSMGWICLSQVSFFDCNLLYCVVFFIFSSKSLATSPFLSLVLLFSLYPL", "transcriptional activation domain activity": 29200},
      {"sequence": "FLDRGRVGFFFFFLLVSFYSSSWKLLFLLYTHFFVFSGLLALYYFLFWSVLFI", "transcriptional activation domain activity": 68800},
      {"sequence": "FFHVTVRVASQGCGLAFGIHGFENTDVFLAYLILGAEGYFTLVLCTFRFLVSW", "transcriptional activation domain activity": 66200},
      {"sequence": "MPHYNSFNMDFSKLRNACGIVLLHWRRYRRILWLIAKNFMRLRGLVSLFDSGP", "transcriptional activation domain activity": 48600},
      {"sequence": "SGWQRHIILHESLLNRYEHVIIVFVKSHLPSAGLLLKQFCVSGRILARMWRNG", "transcriptional activation domain activity": 47800},
      {"sequence": "HVGRLMPIIAYFRAVIKCIEMLGVKRPVLVCPLSSFHGGFYVGGLMFQCVDRK", "transcriptional activation domain activity": 62600},
      {"sequence": "TEAPPAPAPEGGDDEEDGEGDEGGEAAAGGKKKKKKKKPAEKKVPEAPAPKKG", "transcriptional activation domain activity": 15400},
      {"sequence": "RSLQLSWSILLRFFKEHFCMDRLSLTIVDLGTLGSPLIRSERNGYLRRFFQVF", "transcriptional activation domain activity": 46700},
      {"sequence": "RKRGWSDEDGEGEGAEGGEAQNGKGKGKGRGRRARGKGKGKGKESAEAEKDED", "transcriptional activation domain activity": 27200},
      {"sequence": "MFLFIYFVCVCVFSLSLLWDGVSGWVLFVLDWIGLIGGMCVWAYIIIFYEFLV", "transcriptional activation domain activity": 63200},
      {"sequence": "FDAALQHCRHGIMILNNSSRPEWMCQYLVPIFRRLSITPFFFGGVRPTRLPQL", "transcriptional activation domain activity": 68800},
      {"sequence": "EIKGDLTMTNLVTNFGFSIRWTHNLFEHLSIDWVGRVITIYEDKICLWNHLRF", "transcriptional activation domain activity": 43500},
      {"sequence": "ALVADPEYQRELDYMANGKQLLVPLRYLLNLVWRYCHGAQTICFSFFLLHGRN", "transcriptional activation domain activity": 64200},
      {"sequence": "RMLFPNVQELHWEAQNFEKSPLLNMFMGLHLTEIYFTFSAGSYAQMTWIPIMY", "transcriptional activation domain activity": 33300},
      {"sequence": "SEPELYVPQFKLDPVNGFWFPHFVKYIILILMLGLYVLIIFWTFMICKVVYRL", "transcriptional activation domain activity": 33300},
      {"sequence": "MINFWLFIFLSSSLLFLPFFFLYIFFNYYYFFLFTQYIMVTWFFENYQFANAW", "transcriptional activation domain activity": 56200},
      {"sequence": "AMFAVSILIMIQVNTSAVFFAVDTMLLYLCMELGFTFIYTILVTSRLLVMRCQ", "transcriptional activation domain activity": 56600},
      {"sequence": "IAPCGSWTPYTCLILGSIISLFIDFDVFAPFSYRGFITSYFGLAWFWFMFLFW", "transcriptional activation domain activity": 56200},
      {"sequence": "SLISFRLLGEVATGIKYLVCYDMPNMSRIEVELAKRLYCLILCGLCTWSIYGR", "transcriptional activation domain activity": 79500},
      {"sequence": "EGDSDEEGDEDMYQQVDMNDVMDGVLEGMDNMGEERLNRGRARLKIHTGGPGK", "transcriptional activation domain activity": 37300},
      {"sequence": "IMLVLNWLAVHGLFLVKKKSEKSVYHALHKMPTPPFSDSLRQQCRDRLLACLA", "transcriptional activation domain activity": 36700},
      {"sequence": "MLLNLRGHIDEHLQYIIATSFKLMDTAETFALRLANLEVLINTVLYNAAAALH", "transcriptional activation domain activity": 48600},
      {"sequence": "MLYLYPLYLGYYLFLFLSISRLEKFLHIGSLITCLPRLVSLEIRLTLCLYYHL", "transcriptional activation domain activity": 80100},
      {"sequence": "MRCPFHLLHTTSGLVYTFYLLFWVLVDTLMFYFFFPSCMSLGSVGHLLFISCC", "transcriptional activation domain activity": 67600},
      {"sequence": "MPPTSSSVSRSSFSRGRTSSCRPRYSSSRPTSSSTSGSSRRTARSSPSASPRS", "transcriptional activation domain activity": 11000},
      {"sequence": "WGTTFRDEGSRVRVLMRRLARMMRLGGRTPCQSDHISNVHFSAPADWQSTWGT", "transcriptional activation domain activity": 48000},
      {"sequence": "PELIGFCCFSMRFFVFIDLLGTLILPATVVYLIYLIIVVATRASAFPQIAIIM", "transcriptional activation domain activity": 59400},
      {"sequence": "ALSTADGGRVPAKRARKAINCGPCRLSKLKCDRERPCSSCKLRGTTASCYQGQ", "transcriptional activation domain activity": 34000},
      {"sequence": "ESLREIGLTSVRDIITRHASEQAILTVVDFPLRVLAMIAQIRCGLWVRNGFVI", "transcriptional activation domain activity": 77800},
      {"sequence": "NVLLLGLLGWLIRLVHNSEPTLVLKKLCSTLVTYFTRQSFRWRRCIKHLVCAF", "transcriptional activation domain activity": 39900}
    ]}
  ]
}
